The values below come from PMC5658623.

In the experiment the target is PhaPTD from Halomonas bluephagenesis TD01 (Halomonas bluephagenesis TD01). The experiment is described as follows: SEC-MALS; Superdex 200 gel filtration connected to an eighteen-angle static light scattering system (DAWN HELEOS II); HBS buffer (1.5 mM Na2HPO4, 50 mM HEPS, 150 mM NaCl); sample at 1 mg/mL; 0.5 mL/min; 16°C. (In gel filtration, larger molecules generally elute earlier.)

Regarding “PhaPTD from Halomonas bluephagenesis TD01 (natural protein)”, the stoichiometry N is 3.

In general, stoichiometry N refers to a count of units in the complex or per binding partner.
